Assay results reported in the supplement of paper PMC9170038.

System: K4 kissing-loop RNA reporter
Test: apparent KD of K4 kissing-loop reporter; higher = weaker reporter binding
Details: Eterna round: R107
Experimental: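 RNA-MaP round R107: designed RNA switches with theophylline, tryptophan, arginine or FMN aptamers are transcribed on-chip within common flanks. They are titrated with a labelled K4 kissing-loop RNA reporter in RNA-MaP buffer (100 mM Tris pH 7.5, 80 mM KCl, 4 mM MgCl2), without ligand or with the indicated ligand. Median apparent KD per design.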

[1] = input ligand: theophylline 20 uM
[2] = input ligand: tryptophan 2.4 mM
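Also: bound reporter read as fluorescence of individual clusters on recovered sequencing chips by microscopy, with normalized cluster intensities fitted with a binding model.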

Sequence | apparent KD of K4 kissing-loop reporter (input ligand: FMN 200 uM) [nM] | apparent KD of K4 kissing-loop reporter (input ligand: arginine 13.2 mM) [nM] | apparent KD of K4 kissing-loop reporter (input ligand: none) [nM] | apparent KD of K4 kissing-loop reporter [1] [nM] | apparent KD of K4 kissing-loop reporter [2] [nM]
AAAGUCGGCUGUGAUACCAGUCAUAUAACAACAUAUCGCAGUGAUGUUGCGAGAUAGGAUGACCCUUGGCAGCACUCAGUACGAU [Same State Theophylline B GF 6] | 349 | 360 | 380 | 331 | 338
CCGUGGAGUGAUGUUCCACGUAAUACGGAUACCAGCUUUGCCAAAGGCCCUUGGCAGCCGCACGUUGCAGUGAUGUUGUGGCGCG [Same State Theophylline A G8] | 191 | 143 | 183 | 162 | 150
UGAUAGGACAGAAGGAGCGGGAGUGAUGUUCCCAAAAUGGAAGGUCGACAAAGUCGACCCUCCCAGGUAGGUCGCUGUCCUAUCU [ArgBX 6 #SwitchBubble #StaticStem] | 91.3 | 101 | 99.6 | 99.2 | 86.7
AACUCUCAGGCACGCGAGUGAUGUUCGCGGCGAGGACCGGUACGGCCGCCACUCGCGCCUGAGAGAGGUUAUCAAAGAUAGCCAA [whbob_SS_tryp_A] | 146 | 51.3 | 116 | 118 | 223
AGCGAUGUUUUCUCUAAGAGUGAUGUUUUUCGAGGACCGGUACGGCCGCCACUCGAAUAAAGAGUGUGGUAGUGAGCUGUUGACU [qqmullin] | 622 | 256 | 451 | 442 | 278
GGCGGCUGCGCGCAAGCGCAGCCGGCCGAUACCAGCGCGACGGCGCGCCCUUGGCAGCGGCGCCGAGUGAUGUUCGGCCUGCCGU [#2 Same State - Theophylline A Attempt #22 (HarryS)] | 113 | 98.1 | 129 | 149 | 141
GGGAGGAGUGGUGUUGAUUAGGGAGCGGAAGGAGCGCCGAAGAAGGCAGGUAGGUCGCCGGAAUAUAGUGAUGUUAUAUAGAGGG [ExArg.G] | 304 | 211 | 270 | 168 | 201
CGGAGUGAUGUUCCGUUAAUUAAUUAUUUACGAGGACCGGUACGGCCGCCACUCGAUUUUGCUUUUAUUUAAUGUUUGGAAAUUU [JR_SSTryptoA_Sub006] | 135 | 143 | 142 | 146 | 101
AUCAUUAGUUCGGCCGCCACUCCAGUGAUGUUGGAGGGACGCAUAAUAUGCGCGCGGCUAACUAGGAGGACCGGGAACUUUAGGC [Maonce] | 82.8 | 115 | 133 | 86.9 | 156
GGGUCUGCGCGAAGGAGCGCCCUGACAGGUUGCUGCCGUGGGCAGUGAUGUUGCUCAGUCCGGCAGGUAGGUCGCGUGCAGACCC | 135 | 161 | 176 | 169 | 160
GUGCGCGCGGCGGCCGCCACUCGCAUGAGAGUGAUGUUCUCACCGUGACCGCAAGGUCGCGGUGUGAGGACCGGGCCGGGCUGCG [#2 Same State - Tryptophan B Attempt #25 (HarryS)] | 74.3 | 93.5 | 217 | 464 | 297
UUUGGUUGUGGUGUUGAUUAGGGAGCGGAAGGAGCGCCGAGGAGGGCAGGUAGGUCGCCGGAAUGUAGUGAUGUUGCAUAGAGGU [ExArgA.Ad] | 325 | 277 | 198 | 603 | 341
AAGCAGUCACGCGAAGCCAUCGAAGAUGGACGAGGACCGGUACGGCCGCCACUCGGAGUGAUGUUCCGAAGACUGCAAAAUAAAA | 515 | 499 | 420 | 599 | 363
UGUGGAGAAUAUGAUACCAGCAGUGAGAGAGAGGAAGUAUAGUGAUGUUAUAUGAGAGAAUGCCCUUGGCAGCAUAUGAAGAAGG [SSTheophylB.E] | 174 | 120 | 148 | 138 | 115
CCUAUCUGUUACGAUACCAGUCAAUGAUAUUUUAUCAAUGCCCUCACCGAGUGAUGUUCGGACCCUUGGCAGCGUCUGGGAUAGG [tyygpimullin] | 160 | 148 | 171 | 153 | 151
GCCGUCCGGUCGCAAGACCGGACAGCCGAUACCAGCGCGAAGGCGCGCCCUUGGCAGCGGCACCGAGUGAUGUUCGGUCAGGCGG [#2 Same State - Theophylline A Attempt #2 (HarryS)] | 179 | 148 | 173 | 128 | 166
